In the supplement of paper PMC10899765:

Tests used:
Conditions in all cases: 20 nM; 72 h
MCF10A [1] = experiment: one-nucleolus phenotype percent effect (relative to siNT 0% and siNOL11 100%); higher = more cells with one nucleolus (ribosome biogenesis inhibition)
Method: (§1)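 After 72 h, cells were fixed and stained with Hoechst and anti-fibrillarin, and nucleoli per nucleus were counted with CellProfiler. Values are plate-adjusted percent effect for the one-nucleolus and 5+ nucleoli phenotypes, normalised to siNT (0%) and to the positive controls siNOL11 or siKIF11 (100%), as the mean of biological triplicates. Percent viability is the nuclei count relative to siNT.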

MCF10A [2] = experiment: 5+ nucleoli phenotype percent effect (relative to siNT 0% and siKIF11 100%); higher = more cells with five or more nucleoli
Method: as §1

MCF10A [3] = experiment: percent viability (nuclei count relative to siNT); higher = more viable cells
Method: as §1

Row | Sequence | one-nucleolus phenotype percent effect (MCF10A [1]) [%] | 5+ nucleoli phenotype percent effect (MCF10A [2]) [%] | percent viability (MCF10A [3]) [%]
1 | GGGCUAGGGCCUGCUGCCCCC [hsa-miR-6069] | -4.55 | 21.6 | 54.3
2 | AGGCGCACCCGACCACAUGC [hsa-miR-6722-5p] | 26.5 | -18.7 | 22.4
3 | CAGUUCUGCUGUUCUGACUCUAG [hsa-miR-6874-3p] | -4.11 | -30.6 | 28.9
4 | UUUUGCAAUAUGUUCCUGAAUA [hsa-miR-450b-5p] | -22.9 | 14.4 | 108
5 | CUCUAGAGGGAAGCGCUUUCUG [hsa-miR-519c-5p] | 1.39 | -10.6 | 31.6
6 | ACCCAGGUUCCCUCUGGCCGCA [hsa-miR-4726-3p] | 51.3 | -34.6 | 23.9
7 | GAAAAUCCUUUUUGUUUUUCCAG [hsa-miR-4668-3p] | -14.6 | 28.5 | 72.8
8 | CUUAGAUUAGAGGAUAUUGUU [hsa-miR-8061] | -12.7 | 58.8 | 73.7
9 | GGGACUAGGAUGCAGACCUCC [hsa-miR-6503-3p] | 9.94 | -6.73 | 49.8
10 | AAGUUGGCUGCAGUUAAGGUGG [hsa-miR-4715-5p] | -2.6 | -13.4 | 22.1
11 | AAGGCAGGGCCCCCGCUCCCC [hsa-miR-940] | 45.5 | -29.5 | 12.8
12 | CCUAGAAACUGUAAACUUAGUC [hsa-miR-8067] | -35.3 | 47.4 | 108
13 | GGGGAGCUGUGGAAGCAGUA [hsa-miR-920] | -6.81 | 23.5 | 53.2
14 | UCUCAGGAGUAAAGACAGAGUU [hsa-miR-3664-3p] | -19.4 | 17.2 | 86.7
15 | UCACCAGCCCUGUGUUCCCUAG [hsa-miR-1226-3p] | 33.5 | -42.2 | 31.7
16 | GAGACUGGGGUGGGGCC [hsa-miR-4463] | -14.3 | -7.37 | 64.8
17 | UGUGGGACUGCAAAUGGGAG [hsa-miR-4648] | 19.7 | -30.5 | 41.5
18 | UGAGGGAGUUGGGUGUAUA [hsa-miR-6129] | 18.8 | -7.69 | 24.3
19 | UUCUCCAAAAGGGAGCACUUUC [hsa-miR-519e-5p] | -3.64 | 4.42 | 39.5
20 | CAACCACCACUGUCUCUCCCCAG [hsa-miR-6776-3p] | -24.4 | 48.4 | 91.3

Row | Sequence | one-nucleolus phenotype percent effect (MCF10A [1]) [%] | 5+ nucleoli phenotype percent effect (MCF10A [2]) [%] | percent viability (MCF10A [3]) [%]
21 | CCUGAGCCCGGGCCGCGCAG [hsa-miR-1199-5p] | -24.2 | 27.4 | 71.4
22 | UCGGGGCAUGGGGGAGGGAGGCUGG [hsa-miR-6775-5p] | -21.8 | 35.1 | 57.8
23 | UGGGAAUGGGGGUAAGGGCC [hsa-miR-6716-5p] | 19.7 | -19.9 | 28.8
24 | CGGCAACAAGAAACUGCCUGAG [hsa-miR-196a-3p] | 37.8 | -32.7 | 25.1
25 | CCAUGGAUCUCCAGGUGGGU [hsa-miR-490-5p] | 0.865 | 16.2 | 63.5
26 | UGAGGAGAUGCUGGGACUGA [hsa-miR-4784] | -9 | 22.8 | 56.7
27 | UGUUGGGAUUCAGCAGGACCAU [hsa-miR-4425] | 19.2 | -29 | 27.3
28 | AGGCACCAGCCAGGCAUUGCUCAGC [hsa-miR-593-5p] | 12.3 | -0.886 | 40.2
29 | CGGGCGUGGUGGUGGGGG [hsa-miR-1268a] | -19.1 | 44.8 | 96.6
30 | AGGCAGGGGCUGGUGCUGGGCGGG [hsa-miR-4763-3p] | 9.32 | 5.7 | 52.2
31 | GGAGGUUGGGAAGGGCAGAG [hsa-miR-6086] | -8.13 | 0.449 | 69.1
32 | CUGACCUAUGAAUUGACAGCC [hsa-miR-192-5p] | 57.2 | -30 | 28.2
33 | UUUGUUCGUUCGGCUCGCGUGA [hsa-miR-375] | 0.601 | 5.82 | 59.7
34 | UUGGCCAUGGGGCUGCGCGG [hsa-miR-3187-3p] | -2.01 | 12.9 | 30.1
35 | UAGCAGCACGUAAAUAUUGGCG [hsa-miR-16-5p] | 27.2 | -19.3 | 15.8
36 | UAGAGAGGGGAAGGAUGUGAUGU [hsa-miR-6758-5p] | 12.9 | -13.9 | 44.4
37 | GUGGGCGGGGGCAGGUGUGUG [hsa-miR-1228-5p] | -5.58 | 15.3 | 64.8
38 | GUCACUGAUGUCUGUAGCUGAG [hsa-miR-4420] | -18.2 | 1.76 | 87.4
39 | UGGGCUGCUGAGAAGGGGCA [hsa-miR-6829-5p] | 37.7 | 2.03 | 7.58
40 | AAAGUAGCUGUACCAUUUGC [hsa-miR-562] | -28.9 | 57 | 83.9

Row | Sequence | one-nucleolus phenotype percent effect (MCF10A [1]) [%] | 5+ nucleoli phenotype percent effect (MCF10A [2]) [%] | percent viability (MCF10A [3]) [%]
41 | UCGACAGCACGACACUGCCUUC [hsa-miR-196b-3p] | 2.46 | 5.68 | 65.2
42 | CAAAAACUGCAAUUACUUUCA [hsa-miR-548ae] | -34.4 | 38.6 | 153
43 | CCAGGCUCUGCAGUGGGAACU [hsa-miR-3155a] | -2.13 | 30.4 | 32.5
44 | GAGUGGAUAGGGGAGUGUGUGGA [hsa-miR-6849-5p] | -18.4 | 31 | 126
45 | CCCAGUGUUCAGACUACCUGUUC [hsa-miR-199a-5p] | 4.51 | -30.3 | 68.8
46 | AAUGUUUUUUCCUGUUUCC [hsa-miR-4307] | -12.3 | 3.12 | 63.9
47 | UUAUCAGAAUCUCCAGGGGUAC [hsa-miR-361-5p] | -9.14 | -4.16 | 62.4
48 | UCCUGCCACCUCCUCCGCAG [hsa-miR-6727-3p] | 19.2 | -26.4 | 32.5
49 | UGGACUGCCCUGAUCUGGAGA [hsa-miR-1288] | 7.88 | 2.11 | 33
50 | AGCGGUGCUCCUGCGGGCCGA [hsa-miR-4746-3p] | 35.6 | -33 | 34.7
51 | UUGCUUGAACCCAGGAAGUGGA [hsa-miR-1273e] | 53.6 | -48.1 | 29
52 | CUGGACUGAGCCGUGCUACUGG [hsa-miR-1269a] | 6.41 | -26.1 | 52.7
53 | ACAUUUUCCAGCCCAUUCA [hsa-miR-1250-3p] | 53.7 | -18.3 | 12.3
54 | GACUAUAGAACUUUCCCCCUCA [hsa-miR-625-3p] | -5.42 | 19.1 | 104
55 | GAAAGAGAGCUGAGUGUG [hsa-miR-4311] | 31.2 | -27.3 | 26.3
56 | AAAAGUAAUUGCGGGUUUUGCC [hsa-miR-548as-5p] | -24.9 | 35.9 | 160
57 | UCCCCCAGGUGUGAUUCUGAUUU [hsa-miR-361-3p] | -5.19 | 21.5 | 74.8
58 | UGGGGGAGAUGGGGGUUGA [hsa-miR-6870-5p] | 15.2 | -6.86 | 32.7
59 | UGUGACUUCUCCCCUGCCACAG [hsa-miR-6820-3p] | 22.3 | -7.76 | 32.3
